Data published in the DeepSol protein solubility set.

Test: soluble on expression in E. coli; label from the status in PepcDB or PDB records

Sequence | soluble on expression in E. coli
MPTYPPSLLQSLLQYIPERELAWDCGAGSGQLTHMLASYFDQVVGTDISQTQLSHAEYYDNISYQLQPAENTTFPDHCFDLITVAQAIHWFDFEAFYAEVRRTIKPSGILAVVGYGLIHVDDLEINAKVQHLYHQTLNGFWDAERHYVDELYQTIPFPFDEIEMPAFQIEAQWTLQQLLQYLNTWSAVQHYILEKNLDPVQQLLSKGLEHHHHHH | not soluble
MGSDKIHHHHHHMAKSKSTYSCTECGGQTLKWQGQCPHCQAWNTLVEAMSEKAAARFTPVSESREVQSLSEVEAEEEQRYSTGLLEFDRVLGGGLVQGGVVLLGGDPGIGKSTLLLQALCNMSLLPLARNVLYVSGEESARQVAMRAKRMGVDAKALHLLAEIRLERIQEVLAERKPDVAVIDSIQTVYSDALQSAPGSVAQVRECAAQLTRLAKASGTGMILVGHVTKEGALAGPRVLEHMVDTVLYFEGDTHSSFRLIRAFKNRFGAVNELGVFAMTEKGLREVSNPSALFLSHHGGQVPGSCIMVTQEGTRPLLVEIQALVDEAHSPNARRLSVGLEQNRLAMLLAVLHRHAGIACFDQDVFVNAVGGVKITEPGADLAVLLAIVSSLKNRPLPEKTVVFGEVGLAGEVRPVQRGLERLREAAKLGFVQAIVPKANKPKATPPGIEIIAVERVEEAVARMR | not soluble
MIEVGDLKKGMFIIYDGEIYRVLEASKHFMGRGSGLIRTKLKNVKTGFVREVNFPSGEKVQEAELSFRKAQYLYRDGDHYYFMTLDDYEQYALSEEEIGDAKYYLVENMEVDLVFHEGTPIGIELPTTVELTVVETEPSFKGDTVSGGGKPAVLETGLKITVPYFIEVGDKIKVDTRTGEYVGRA | soluble
MAHHHHHHMSGITVQLVFAFVGTRVPYFMPESATAASSPARSPFGNASSVSFNAAAQPTLRADSARTSPRLTPCIPTNLFTAHGLLSHLAKALEPSLHAAANPEAATAESASLSPTAPLPFHKPPVFELFDYASLDPLEGSAALRDEQVLLVLCDIATTAQLVEALQLEWLEVYSGVHHPHHRSCSASTPEPAHTTDMAVCTTEEKLRNVAHAQQALCKPVGLHLSLLRKELLSREATLAAQKEQLAQMRSCTTEGTAPAAPATASGSDGLSTPMLSGRAASFPLLVELEPSLSSEPAPSATDATHLQKLEAPLALCEARVRAVESLMQRAAKHHTKLLGLAASERATEEAFQRGNVSRACAEYLEHTEQDRSAAEAIIADYQVEMTRQVKVVRQLIAYITQVRKLASKAKYEMGVVELILSRLSLTSLRPRLMKEAEALLRRRVILRRAARRQMLLLQETEFVKLQQDLESFSQRMEVQKVLPEKVRWYLRAPLPSLMPEEDPVATLLDHALIDREEDEAQELVEKTRVYTADSSDPEKNALQITEALLPVERLARRLEEARASAAQYKSRVEELEERLKLYETAEALSPPPLQDSAVKSPSTERPAEGGGSFEEG | soluble
MSLKVTFEQLKAAFNRVLISRGVDSETADACAEMFARTTESGVYSHGVNRFPRFIQQLENGDIIPDAQPKRITSLGAIEQWDAQRSIGNLTAKKMMDRAIELAADHGIGLVALRNANHWMRGGSYGWQAAEKGYIGICWTNSIAVMPPWGAKECRIGTNPLIVAIPSTPITMVDMSMSMFSYGMLEVNRLAGRQLPVDGGFDDEGNLTKEPGVIEKNRRILPMGYWKGSGMSIVLDMIATLLSDGASVAEVTQDNSDEYGISQIFIAIEVDKLIDGPTRDAKLQRIMDYVTSAERADENQAIRLPGHEFTTLLAENRRNGITVDDSVWAKIQALEGHHHHHH | soluble
MDVMNAFDSQAEDSPTSLGRSLRRRPLARKKLSEMVEEELEQMIRRHEFGEGEQLPSERELMAFFNVGRPSVREALAALKRKGLVQINNGERARVSRPSADTIISELSGMAKDFLTHPGGIAHFEQLRLFFESSLVRYAAEHATDEQIALLTKALEINSQSLDDNALFIRSDVEFHRVLAEIPGNPIFMAIHVALLDWLIAARPSVPDRELHEHNNVSYQQHIVIVDAIRQRDPDKADRALQTHLNSVSATWHALGKKSQKMR | not soluble
MRGSHHHHHHTDPALRARIGIDLGGTKTEVIALGDAGEQLYRHRLPTPRDDYRQTIETIATLVDMAEQATGQRGTVGMGIPGSISPYTGVVKNANSTWLNGQPFDKDLSARLQREVRLANDANCLAVSEAVDGAAAGAQTVFAVIIGTGCGAGVAFNGRAHIGGNGTAGEWGHNPLPWMDEDELRYREEVPCYCGKQGCIETFISGTGFAMDYRRLSGHALKGSEIIRLVEESDPVAELALRRYELRLAKSLAHVVNILDPDVIVLGGGMSNVDRLYQTVGQLIKQFVFGGECETPVRKAKHGDSSGVRGAAWLWPQEGLCGR | soluble
MGSDKIHHHHHHPEKKVATSVPAPQKMDGEQLFEDMQLGGVVNFLAFRQAVAGYNLIKQKSKSILTLIDFTKPSTEKRLFVFDMEQKKMLYSSVVSHGKNSGENYATSFSNEVGSYKSSLGFYLTGNTYQGRNGYSLLLDGLEKGINDRARERAIVVHGAAYANPSVCKSGRLGRSFGCPALPQALTKPIINTIKGGSVLFIYANNKEYMAKSSILPNQTSQELFTEACESEQTVSVHL | not soluble
MSLQNFQTEEISALIQNYDFDKALYKLKSHYSDMTFKEADSLLLANNIVYSENNETQQQQYLANLDTLLRDINNNHSEIASFTIYKNDMILVNTHNLYNHGFYKINSSLENIYFNLSEITDNDDQFAKYFKLLNLFFSTISRDAILSTSDKFNDIAIRKHEHSTNISTAFSQIFNECLKSKFEKNNVKTLFAELATYDIIEILNELIENHLKDTSYHLDNFVEAFTGNVMNSSIIIENLYHQIVVQNKLLQLVLLSFLFLDFDTNIFGDKIETLLDINYKQTFFMSFYEFDSKLTQSSMSMHTLQYPHGVQIFSSSELAGYLEFEIATLYSTPIVDSRLYIAFMQEYVLNWREKMEPPQKAINFFKYILEPLYRRNEIDEEFLLAMSMFNCGRFEQAYEFFTMNDYMLHLANKLPPFLKNVQQNSLWYELLKTFTESSTNAHYYLQLSLLFKTYNRLDLALKCVSKSVEYSMKHPSVEEGHHHHHH | soluble
MGSDKIHHHHHHMKFYEDGNIPEIPNMYFIYGDGGTGKTSLLKQLKGHKFVFSFDMSSNVLIGDKDVDVVIFEHNDAPNIQAMVEECIIRAIQNAKYQVIVLDNVTALQNLVLENIDNAAKDNRQNYQKLQLWFRDLGTILKESGKTIYATAHQLDNGSSGISGEGRFQADMNEKTFNAFTSMFDLVGRIYLAAGERMIDLDPEKGNHAKNRLDDRKLIKANELIQSEKGEK | not soluble
MGSDKIHHHHHHMDQQTVLPEQDHDKSAIDELDFSCHSSGNFPGILAGLKLSLVVTSYQAHRLFFVRSNGIQIDVNFKNFVRPMGISVTPQQITLGTLNQVWRFRRSDDALALLDDPHADACYVASACHTTGLINIHDIAYGNKGLWVTNSAFSCLATLEPDYSFVPRWKPDFISALAPEDRCHLNGMALLDGEPAYVTTFNQSDTARSWRDGAKDQGTLINIKTGEQIFSNLTMPHSPRCYNGYVYFCESGHGLVRRYDPRTNEVVDVVKLAGFTRGMDFFGPLMFVGLSKTRFSSVAEPAPIAQQLEESQSGIWCINLTDHSVVGFVRFEGNIDQIYDVAVLSGVMYPELLLPDDELSMSVFNFPPLSYASEN | not soluble
MGSDKIHHHHHHMYVTSQIHAKGSDLAKLMQIAALKGNEEVLDVATGGGHVANAFAPFVKKVVAFDLTEDILKVARAFIEGNGHQQVEYVQGDAEQMPFTDERFHIVTCRIAAHHFPNPASFVSEAYRVLKKGGQLLLVDNSAPENDAFDVFYNYVEKERDYSHHRAWKKSDWLKMLEEAGFELEELHCFHKTFIFEDWCDRMNVTTEKKQELSDFIKSKPTEYYQKFKIVVEDGRVYSFRGESILMKARKPTVKNKGSS | soluble
MTAASIDRELVPWSDPEFRNNPYPWYRRLQQDHPVHKLEDGTYLVSRYADVSHFAKLPIMSVEPGWADAGPWAVASDTALGSDPPHHTVLRRQTNKWFTPKLVDGWVRTTRELVGDLLDGVEAGQVIEARRDLAVVPTHVTMARVLQLPEDDADAVMEAMFEAMLMQSAEPADGDVDRAAVAFGYLSARVAEMLEDKRVNPGDGLADSLLDAARAGEITESEAIATILVFYAVGHMAIGYLIASGIELFARRPEVFTAFRNDESARAAIINEMVRMDPPQLSFLRFPTEDVEIGGVLIEAGSPIRFMIGAANRDPEVFDDPDVFDHTRPPAASRNLSFGLGPHSCAGQIISRAEATTVFAVLAERYERIELAEEPTVAHNDFARRYRKLPIVLS | soluble
TPIINDPETVKLFLLTELQHEEREVFMVLFLDNQHRLIKKERLFLGTIYVSAVYPREIIKEALYCNAAALILAHNHPSGITEPSYSDQLITKKIQDAAELMEIRVLDHLIVGKSDCYSFAENCLL | not soluble
PAQDYRCQLSRNYGKGSGSFTNYYYDKATSSCKTFRYRGSGGNGNRFKTLEDCEATCVTAE | soluble
MTKEVLIHQIIDVLARAGFALSDRCNIRPRSFDVAARKDDTLLLCKVLFNIDGLNEETAREMKYLAEYLGGSAIVVGAKTRDQMLEDSVVYMRYDILALSVQTLYDYFVENIRPLVSAAPGGLYVSIEGDLLKKARTTQSMSLGTLASMVGVSRRTISKYEEEGMDASIDVVLHLEDIFGVELAKPIDILKSCGSRKPRKKAEPEKEEPKGKPGTLLPEDLILNTISMLGYDVLPTAQAPFKAISRDKSSVILTGVSEFNTTVIKRAHLMSSISCITETQSVFIINGRSKLKSVENTVLIEKKELDTISDSQELLDFIEERKDTHEA | not soluble
MAAGSGVVPPPLGAGLCTVKVEEDSPGNQESSGSGDWQNPETSRKQFRQLRYQEVAGPEEALSRLWELCRRWLRPELLSKEQIMELLVLEQFLTILPQELQAYVRDHSPESGEEAAALARTLQRALDRASPQVRLEWTLHGTREMA | soluble
MGSDKIHHHHHHMANQVDIMKDEVAKMTLDFTEPQEILLEISPSLQKSAWQESQVYATPSSRWCAYTNQICLYAFLNWIKTESVSKASVWYSSPGIPAFWEFVNGTAILLEEKRVVLIPSEAIDDSELEVPQEWVDIPSWVADYYLAVQVTPDGEWVRIWGYITHQELKSLAHYDQVDRTYCIDARYLIKDLNAFWITYQFCIKEEMKAAIAPLPELSTAQAENMQQLLSDSSVTFVRLAVPFTTWAALLDNEQWRQCLYEQHQRCLRRAVPTQFSQVQVNLSRWLLQIYDASWQAIETFFEPNTSSLAFNFRSSSGLNAAAIKRAKLIDLGMQIEAQKVILLVALMPEVNQQVSIRVQLHPACNQPYLPANIKLVLLSEQGEILQEVQARVQDMYVQLKLFDGEVGERFSIQVTLDSCQITENFVI | not soluble
MKRMHNPAHPGEVLREYLGELTVTNAAAKLGVSRVALSRILNGTNGISADMALRLEDALGTSAEMWAAMQFKYDLWVASQQPRPKITRLHV | not soluble
MRKPKITVIGGGTGSPVILKSLREKDVEIAAIVTVADDGGSSGELRKNMQQLTPPGDLRNVLVAMSDMPKFYEKVFQYRFSEDAGAFAGHPLGNLIIAGLSEMQGSTYNAMQLLSKFFHTTGKIYPSSDHPLTLHAVFQDGTEVAGESHIVDHRGIIDNVYVTNALNDDTPLASRRVVQTILESDMIVLGPGSLFTSILPNIVIKEIGRALLETKAEIAYVCNIMTQRGETEHFTDSDHVEVLHRHLGRPFIDTVLVNIEKVPQEYMNSNRFDEYLVQVEHDFVGLCKQVSRVISSNFLRLENGGAFHDGDLIVDELMRIIQVKKLEHHHHHH | soluble
MENIFLKRLEFKAFEEDSVFSKIEGLNKFNSLNFKKPITFFSGENGTGKSTLLEAIAVNWGFNPEGGSINFNFSTKDTHLDLHNYLTVGKSVKRATDGFFLRAESFYNVATYAENIDLDFSEYGDKSLHHQSHGESFLNLVNHRFRGNGLYLLDEPEAALSPQRQLALMISIKKLIDEGSQFIIVSHSPILLAMPDSQIISFDKDSPLEITYEESMPYEITSLFLNNKNRILSHLFAELEHHHHHH | soluble
